For experiment [1], the target named is human CD2 on cells (MOLT-4 human T lymphoblast cells; primary human T-cells; primary human NK cells) (human) (UniProt P06729). Description: flow cytometry on MOLT-4 cells, anti-mouse AF488 secondary, 4 C. (In general: In flow cytometry, cells or beads pass a laser one at a time.)
The target of experiment [2] is T1, human CD2 on cells (MOLT-4 human T lymphoblast cells; primary human T-cells; primary human NK cells) (human, UniProt P06729 25-351).
T1 sequence: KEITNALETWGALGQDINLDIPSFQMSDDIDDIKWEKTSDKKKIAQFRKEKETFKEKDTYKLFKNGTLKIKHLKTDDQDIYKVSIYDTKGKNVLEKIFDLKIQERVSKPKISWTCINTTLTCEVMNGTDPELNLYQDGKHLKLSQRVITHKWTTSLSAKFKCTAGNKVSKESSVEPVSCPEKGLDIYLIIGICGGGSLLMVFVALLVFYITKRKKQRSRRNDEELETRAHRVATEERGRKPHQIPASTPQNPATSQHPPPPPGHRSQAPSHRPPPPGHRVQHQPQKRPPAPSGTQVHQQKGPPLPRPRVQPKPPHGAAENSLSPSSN
Description: cell-based or functional assay.

In the case of TS1/8 (antibody), in experiment [1], the EC50 came to 0.125 nM.

B1: anti-CD2-amanitin ADC (RPA-2.10-AM), interchain, average drug-to-antibody ratio 6 (antibody, V domains shown)
VH: EVKLVESGGGLVKPGGSLKLSCAASGFTFSSYDMSWVRQTPEKRLEWVASISGGGFLYYLDSVKGRFTISRDNARNILYLHMTSLRSEDTAMYYCARSSYGEIMDYWGQGTSVTVSS
VL: DILLTQSPAILSVSPGERVSFSCRASQRIGTSIHWYQQRTTGSPRLLIKYASESISGIPSRFSGSGSGTDFTLSINSVESEDVADYYCQQSHGWPFTFGGGTKLEIER
In the case of B1, the “NK cell viability (CellTiter-Glo), in vitro NK-cell killing assay, IC50” value in experiment [2] amounted to 0.0052 nM.

By EC50 is commonly meant the midpoint of the concentration-response curve. Higher therefore signals weaker potency.
